Measured values from the nanobody polyreactivity screen of Harvey et al. (2022).

Assay: yeast display, Sf9 membrane polyspecificity reagent, FACS + sequencing; frameworks hold sequencing errors
Method in brief: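 In a synthetic yeast display library (Saccharomyces cerevisiae BJ5465), nanobody expression was induced with galactose for 36–48 hours. FACS gates were set low and high (top ~1%) using anti-HA fluorescence for expression and streptavidin fluorescence for binding of the Sf9 membrane reagent. Each polyreactivity label is drawn from the gate of origin.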

Sequence	polyreactivity (PSR sort gate)
QVQLVESGGGLVQAGGRLRLSCAASGRIFDYNAMGWNRQAPWKERELVAAIRTSGGSTYYADSVKGRFTISRDNAKNTVYLPMISLKPEDNAVYYCAATSRRYRVRYDSWGQGTQVTVSS	high polyreactivity
QVQLVESGGGLVQAGGRLRLSCAASGRIFIRNAMGWYRQAPGKERELVAAIDSVGSTYYADSVKGRFTISRDNAKNTVYLQMNSLKPEDTAVYYCAARGWKYASPYWRYYYWGQGTQVTVSS	low polyreactivity
QVQLVESGGGLVQAGGRLRLSCAASGRIFKFYAMGWYRQAPGKERELVAAIRRGGTTNYADSVKGRFTISRDNAKNTFYLQMNSLKPEDTAVYFCAADGWYRVLTGLVSSWKYWGQGTQVTVSS	high polyreactivity
QVQLVESGGGLVQAGGRLRLSCAASGRIFLGYTMGSYRQAPWKERELVAAISKSGDSTYYADAVKGRFTFSSDNAKYTVFLQMNSLKPEDTAVYYCATRGYQSLRHQGTDDYWGQGTQVTVSS	high polyreactivity
QVQLVESGGGLVQAGGRLRLSCAASGRIFQYNAMGWYRQAPGKERELVAAITSSGGSTYYADSVKGRFTISRDNAKNTVYLQMNSLKPEDTAVYYCAAKRPQYYVQFGYWGHGTQVTVSS	high polyreactivity
QVQLVESGGGLVQAGGRLRLSCAASGRIFVRYVMGWYRQAPGQERALVAAISSSGGSTYYADSVKGRYTISRDTAKKTVYLQMNSLKPEDTAVYYCATDLIDKYFLPYDYWGQGTQVTVSS	low polyreactivity
QVQLVESGGGLVQAGGRLRLSCAASGRIFVYYMGWNIQAPGKERELVAAISFGGGSTYYADSVKGRFTISRDNAKNSVYLQMYSLKPEDTAVYYCNADGDDLDWNYYLVQYDYWGQGTQVTVSS	low polyreactivity
QVQLVESGGGLVQAGGRLRLSCAASGRIFYFYDMGWYRQAPGTERELGAAISRGGSTNYADSVKGRFTISRDNAKNTVYLQMNRLKPQDTAVYYCNAGLYDLRDIAGYSDYDYWGQGTQVTVSS	low polyreactivity
QVQLVESGGGLVQAGGRLRLSCAASGRIFYLNAMGWYRQAPGKETELVAAINTSGDATYYADSEKGRFTISRDIAKNTVYLQMNSLKPEDTAVYYCAAYVIGPDQFIYDYWGQGPQVTVSS	low polyreactivity
QVQLVESGGGLVQAGGRLRLSCAASGRIFYNYAMGWYRQAPGKERELVAAISVSGGSTYYADSVKGRFTISRDNAKNTVYLQMISMKPEDTAVYYCATYSSRQRKSSYYYGGQGTQVTVSS	high polyreactivity
QVQLVESGGGLVQAGGRLRLSCAASGRSFYSYTMGWYRQAPGKERELVAAIRKSGGRTYYADSVKGRFTISRDNAKNTVYLQMNSLKPEDTAVYYCATTNYELSYYYWGQGTQVTVSS	high polyreactivity
QVQLVESGGGLVQAGGRLRLSCAASGRTFANYARGGYRQAPGTERELVAAITSGGRTYYADSVKGRFTISRDNAKNTVYLQMNSLKPEDTPVYYCAAEITYLYDYWGQGTQVTVSS	high polyreactivity
QVQLVESGGGLVQAGGRLRLSCAASGRTFDRMLMGWYRQAPGKERELVAAITSGGRTNYADSVKGRFTISRDNAKNTVYLQMNSLKPEDTAVYYCAKRASALLRHSYDYWGQGTQVTVSS	low polyreactivity
QVQLVESGGGLVQAGGRLRLSCAASGRTFGWYAMGWYRQAPGKERELVASITQRGGRTYYADSVKGRFTISRDNAKNTVYLQMNSLKPEDTAVYYCAAKTSPGMYYWGQGTQVTVSS	high polyreactivity
QVQLVESGGGLVQAGGRLRLSCAASGRTFPWNVMGWYRQAPGKERELVAAISWSSGRTYYADSVKGRFTISRDNAKNTVYLQMNSLKPDDTAVYYCAKRYRPYRGNSGNDYWGQGTQVTVSS	high polyreactivity
QVQLVESGGGLVQAGGRLRLSCAASGRTFRGYAMGWYRQAPGKERELVAAITSGGSTNYADSVKGRFTISRDNAKYTVYLQMTSLKPEDTAVYYCAAEPYSWDTWVDYDYWGQGTQVTVSS	low polyreactivity
QVQLVESGGGLVQAGGRLRLSCAASGRTFRPYAMGWYRQAPGKERELVAAITSGGSTYYADSVKGRFTISRDNAKNTVYFQMNSLKPEDTAVYYCNAKYYYQPPYDYWGQGTQVTVSS	low polyreactivity
QVQLVESGGGLVQAGGRLRLSCAASGRTFTVYAMGWYRQAPGKEREFVAAITERGGSTYYADSVKGRFTISRDNAKNTVYLKMNSLKPEDTSVYYFAAVFYWRPGWYVRFDYWGQGTQVTVSS	low polyreactivity
QVQLVESGGGLVQAGGRLRLSCAASGRTFVQYAIAWYRQAPGKEREFVAAISSRVGSTYYADSVKGRFTISRDNAKNTVYLQMNSLKPEDTAVYYCNRDLVPRFDYWGQGTQVTVSS	low polyreactivity
QVQLVESGGGLVQAGGRLRLSCAASGSICEPYVMGWYIQAPGKERELVAAIRQTGGSTYYADSVKGRFTISRDNAKNTVYLQMNSLKPEDTAVYYCNAEQKPSGLYDYRGVEGEMGYWGQGTQVTVSS	low polyreactivity
QVQLVESGGGLVQAGGRLRLSCAASGSIFEGYVMGWYRQAPGKERELVAAITTGGGSTYYADSVKGRFTISRDNAKNTVYLQMNSLKPEDTAVYYCAKDGGRWGQGTQVTVSS	low polyreactivity
